In patent US20070015228A1:

Target: normal human IgG (Zymed) (human)
Experiment: ELISA, 8A3 coated on plate, anti-human IgG Fc-HRP detection

fold (binding to normal human IgG against humanized anti-CD20 IgG): < 50000 fold
B1: anti-idiotypic antibody 8A3 (antibody, V domains shown)
VH: QVQLQQSGAELAKPGASVKMSCKASGYNFTTYWMHWVKQRPGQGLEWIGYINPSTDYTEYNQKFKYKATLTADKSSSTAYIQLSSLTSEDSAVYYCARWWDYDWYFDVWGAGTPLTVSS
VL: DIVMTQSQEFMSTSVGDRVSVTCKASQTVDTNVAWYQQKLGQSPKPLIYSASYRCSGVPDRFTGSGSRTDFTLTITNVQSEDLAEYFCQQYHSFPWTFGGGTKVEIKR
